Source: patent US20230027739A1, “ANTIGEN-BINDING AND ANTIGEN D[…]” (Entrada Therapeutics, Inc., priority 2021, published 2023)

Molecular target: KRas in human cancer cell lines with KRas mutations (HCT-116, SW480, LS180, LS174T) (human), P01116
Experiment: cell-based or functional assay

B1: K19-Cys-EEV12 (designed binder)
chain: MHHHHHHENLYFQGDLGKKLLEAARAGQDDEVRILMANGADVNASDRWGWTPLHLAAWWGHLEIVEVLLKRGADVSAADLHGQSPLHLAAMVGHLEIVEVLLKYGADVNAKDTMGATPLHLAARSGHLEIVEELLKNGADMNAQDKFGKTTFDISTDNGNEDLAEILQKLC
modifications: not checked
With B1 the IC50 of cell viability (CellTiter-Glo, 72 h) on KRas mutant cell lines was 2 to 8 µM.
